Here are results for 120 sequences from the supplement of paper PMC10126150.

± gives the standard deviation of the averaged measurements.

The data set relates to ATP. Briefly: switch fluorescence ratio, 500 uM ATP over buffer (Cy3 cluster intensity, sum of 5 cycles each) (fold (ratio)); higher = stronger signal-on switching upon ATP binding; sequences stand for … in TCGTCGGCAGCGTCAGATGTGTATAAGAGACAGTTTTTTTTTTTTTTTTTTTTTTTTT…TC. To be noted: aptamer strand: ATP DNA aptamer (quencher-CACCTGGGGGAGTATTGCGGAGGAAGG + anchor), 100 nM annealed; ATP concentration: 500 uM. An outline of the steps:
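Switching-strand clusters labelled with Cy3 on a modified Illumina MiSeq flow-cell were annealed to 100 nM quencher-labelled ATP aptamer, imaged in selection buffer, and re-imaged after 15 min with 500 uM ATP at 22 °C. This was done over five cycles with NaOH stripping and re-annealing in between. The fluorescence ratio is summed target-cycle over summed buffer-cycle Cy3 intensity per cluster, averaged per switch-domain sequence, excluding clusters outside 100-1000 RFU.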
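Further: ATP exposure 15 min at 22 °C before imaging.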

Take GTGGGCATGG: the switch fluorescence ratio turned out to be 0.977 ± 0.022. Then GTGGGCGGCG, with 1.02 ± 0.064; and GTGGGGAATG, with 0.986 ± 0.024. In the case of GTGGGGAGCG it was 0.994 ± 0.029; in that of GTGGGGAGTC, 0.992 ± 0.015; in that of GTGGGGAGTT, 0.99 ± 0.023. For the sequence GTGGGGCCTG, the switch fluorescence ratio was 0.955 ± 0.013.

Turning to GTGGGGCGTT, the switch fluorescence ratio was 1 ± 0.035. With GTGGGGGACA, the switch fluorescence ratio is 0.993 ± 0.04.

In the case of GTGGGGGGCG, the switch fluorescence ratio is 1 ± 0.042.

GTGGGGGTTC: the switch fluorescence ratio was 0.985 ± 0.041. Then GTGGGGTCGA, with 1.01 ± 0.04; and GTGGGGTTAT, with 1 ± 0.013; and GTGGGTACCA, with 0.968 ± 0.017. In the case of GTGGGTATTA it was 1 ± 0.023; in that of GTGGGTGATA, 0.994 ± 0.036; in that of GTGGGTGTGT, 1.02 ± 0.045. Then GTGGTAAAGG, with 0.9739 ± 0.0091. As for GTGGTAAATG, the switch fluorescence ratio came to 1.01 ± 0.035. With GTGGTAGCCG, the switch fluorescence ratio was 1.0015 ± 0.00029. Then GTGGTCGATG, with 0.953 ± 0.043; and GTGGTCGGGC, with 1 ± 0.022; and GTGGTGAGGA, with 0.953 ± 0.038. Regarding GTGGTGATGT, the switch fluorescence ratio came out at 1.02 ± 0.012. In the case of GTGGTGGCGG it was 1.02 ± 0.017; in that of GTGGTGGGTT, 0.975 ± 0.018.

GTGGTGTAAT: the switch fluorescence ratio was determined as 0.992 ± 0.0023. Consider GTGTAACGGG, for which the switch fluorescence ratio was found to be 0.995 ± 0.027. Regarding GTGTATACAT, the switch fluorescence ratio came to 0.977 ± 0.066. Then GTGTATCCGT, with 0.994 ± 0.018; and GTGTCAATTA, with 1.01 ± 0.021; and GTGTCAGCGG, with 0.9762 ± 0.0088. Then GTGTCCGTTT, with 1.05 ± 0.039. Then GTGTCTGGGG, with 0.9858 ± 0.0076; and GTGTGAAGGC, with 1.03 ± 0.02; and GTGTGACAAA, with 1 ± 0.037.

Take GTGTGAGGAG: the switch fluorescence ratio came out at 1.05 ± 0.081. Regarding GTGTGAGGGC, the switch fluorescence ratio was 0.948 ± 0.035.

For the sequence GTGTGAGGGT, the switch fluorescence ratio was found to be 1.04 ± 0.053. Then GTGTGAGTTC, with 1.01 ± 0.017; and GTGTGCGGTG, with 0.982 ± 0.015; and GTGTGGGGAC, with 0.988 ± 0.044. In the case of GTGTGGGT it was 1.002 ± 0.0028. GTGTGTGGCA: the switch fluorescence ratio worked out at 1.03 ± 0.038. As for GTGTGTTGAT, the switch fluorescence ratio was 0.989 ± 0.029. In the case of GTGTTAAGGT it was 0.99 ± 0.019.

As for GTGTTAAGTT, the switch fluorescence ratio came out at 0.987 ± 0.034. In the case of GTGTTAGGGG it was 1.02 ± 0.069.

For the sequence GTGTTATTAG, the switch fluorescence ratio worked out at 1.005 ± 0.007. In the case of GTGTTATTGC, the switch fluorescence ratio worked out at 0.953 ± 0.011. Then GTGTTCTGGA, with 1.002 ± 0.006; and GTGTTGGATG, with 0.958 ± 0.069. GTGTTGGGGC: the switch fluorescence ratio was 0.985 ± 0.038. For GTGTTTAACC, the switch fluorescence ratio turned out to be 0.984 ± 0.021.

Turning to GTGTTTGGTG, the switch fluorescence ratio amounted to 1 ± 0.032. For GTGTTTTCGT, the switch fluorescence ratio came to 0.993 ± 0.03. Then GTGTTTTGTT, with 0.986 ± 0.034; and GTTAAAAATG, with 1.04 ± 0.051; and GTTAAAATAC, with 1.13 ± 0.014. In the case of GTTAAACGTT it was 1 ± 0.014; in that of GTTAATGGGT, 0.98 ± 0.047.

For the sequence GTTAATTGGG, the switch fluorescence ratio was 0.953 ± 0.037.

Regarding GTTACACGGT, the switch fluorescence ratio is 1.01 ± 0.021. In the case of GTTACTAATT it was 0.9943 ± 0.0081. Then GTTACTTGGT, with 1.01 ± 0.034; and GTTAGAATAA, with 0.958 ± 0.015. For the sequence GTTAGAGTTT, the switch fluorescence ratio came out at 0.988 ± 0.03. Regarding GTTAGATTGT, the switch fluorescence ratio was 0.9731 ± 0.0039. Then GTTAGCTTAG, with 0.99 ± 0.025; and GTTAGGGGAG, with 1 ± 0.042. Then GTTAGGTACG, with 1 ± 0.07; and GTTAGGTCAG, with 0.997 ± 0.028. Then GTTAGTAATC, with 1.06 ± 0.014; and GTTAGTAGAT, with 1.01 ± 0.019; and GTTAGTCTGT, with 0.9907 ± 0.0052. In the case of GTTAGTGGGC, the switch fluorescence ratio came out at 0.971 ± 0.037. Turning to GTTATAAGGG, the switch fluorescence ratio amounted to 0.975 ± 0.03. Consider GTTATAAGTG, for which the switch fluorescence ratio worked out at 0.9924 ± 0.0054.

For the sequence GTTATAATGG, the switch fluorescence ratio came out at 0.9998 ± 0.0087.

Turning to GTTATAGCTT, the switch fluorescence ratio stood at 1.018 ± 0.0029. In the case of GTTATAGGCT it was 0.999 ± 0.035. In the case of GTTATAGTAT it was 0.963 ± 0.054. In the case of GTTATATGTG it was 0.982 ± 0.055. Take GTTATATTGG: the switch fluorescence ratio was 0.992 ± 0.022. Consider GTTATATTTT, for which the switch fluorescence ratio stood at 1.01 ± 0.032. Consider GTTATGACTC, for which the switch fluorescence ratio is 1 ± 0.076.

Consider GTTATGCTAT, for which the switch fluorescence ratio came to 0.996 ± 0.017. In the case of GTTATTCAAT it was 0.9724 ± 0.0018; in that of GTTATTGCGA, 0.997 ± 0.019.

Take GTTATTTAGA: the switch fluorescence ratio came to 1.03 ± 0.043. In the case of GTTCAAAATT it was 1.03 ± 0.036. Then GTTCAAGGCT, with 1.0016 ± 0.0002. Then GTTCACCAAT, with 1 ± 0.07; and GTTCACCGGG, with 1.141 ± 0.0051.

GTTCAGTAGG: the switch fluorescence ratio came to 0.9677 ± 0.0077. Then GTTCCCAGGA, with 1.09 ± 0.02; and GTTCGAACGA, with 0.9856 ± 0.001. Then GTTCGAACGG, with 0.9963 ± 0.006; and GTTCGACCCG, with 1.02 ± 0.032; and GTTCGACTGT, with 1.024 ± 0.0042. In the case of GTTCGGATGG, the switch fluorescence ratio is 1.015 ± 0.0032. In the case of GTTCGGCGGC it was 0.991 ± 0.016.

Regarding GTTCGGGGTT, the switch fluorescence ratio was determined as 1.014 ± 0.0016.

With GTTCGTACGT, the switch fluorescence ratio came to 0.962 ± 0.082. Then GTTCGTTGAC, with 0.9862 ± 0.0067; and GTTCGTTTTG, with 0.975 ± 0.035; and GTTCTAAAAA, with 1.02 ± 0.042. In the case of GTTCTGTTGG it was 0.995 ± 0.023. In the case of GTTCTTACTT it was 0.973 ± 0.059; in that of GTTCTTGGGA, 1.03 ± 0.077. As to GTTCTTGGTG, the switch fluorescence ratio came out at 1.01 ± 0.0089.

For the sequence GTTCTTTTGG, the switch fluorescence ratio amounted to 0.973 ± 0.01. Then GTTCTTTTTT, with 0.9511 ± 0.0071. In the case of GTTGAAAGGG it was 1.03 ± 0.027; in that of GTTGAACAGT, 1.01 ± 0.065; in that of GTTGAAGGAC, 0.996 ± 0.026. For GTTGAAGGGG, the switch fluorescence ratio is 1.029 ± 0.009. On to GTTGAATCTT, for which the switch fluorescence ratio is 0.995 ± 0.035. On to GTTGACGCTA, for which the switch fluorescence ratio came to 1.07 ± 0.024. In the case of GTTGACTTAA, the switch fluorescence ratio stood at 1.02 ± 0.013.
